T1: RID1 (Oryza sativa (rice), UniProt B1B534 1-475)
T1 sequence: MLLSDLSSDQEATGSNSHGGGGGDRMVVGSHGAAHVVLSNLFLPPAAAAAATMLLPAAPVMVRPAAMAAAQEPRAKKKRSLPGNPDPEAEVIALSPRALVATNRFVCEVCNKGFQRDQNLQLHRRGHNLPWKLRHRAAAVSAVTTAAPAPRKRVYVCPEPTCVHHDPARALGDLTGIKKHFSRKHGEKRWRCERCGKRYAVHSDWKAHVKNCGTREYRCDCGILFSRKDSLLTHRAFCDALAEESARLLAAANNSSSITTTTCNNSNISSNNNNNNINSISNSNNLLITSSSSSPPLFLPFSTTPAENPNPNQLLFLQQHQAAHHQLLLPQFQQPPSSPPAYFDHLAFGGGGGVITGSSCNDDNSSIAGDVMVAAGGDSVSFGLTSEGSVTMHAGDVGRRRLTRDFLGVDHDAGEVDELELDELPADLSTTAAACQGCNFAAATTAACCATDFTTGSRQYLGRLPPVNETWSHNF

B1: bio-Hd3a (dsDNA)
DNA 1: CTTATCTTGCCCGGACAAATCGAGCTAAGCAA
DNA 2: TTGCTTAGCTCGATTTGTCCGGGCAAGATAAG
B2: bio-RFT1 (dsDNA)
DNA 1: ATAACGTTTGACCATTTGTCTTATTAAATATATATATAAA
DNA 2: TTTATATATATATTTAATAAGACAAATGGTCAAACGTTAT
B3: bio-Hd3a-M (dsDNA)
DNA 1: CTTATCTTGCCCGGATTAATCGAGCTAAGCAA
DNA 2: TTGCTTAGCTCGATTAATCCGGGCAAGATAAG
B4: bio-RFT1-M (dsDNA)
DNA 1: ATAACGTTTGACCATTAATCTTATTAAATATATATATAAA
DNA 2: TTTATATATATATTTAATAAGATTAATGGTCAAACGTTAT

Molecular target: T1, RID1
Assay: EMSA; 10 uM ZnCl2; 10 mM Tris (pH not stated), 50 mM KCl, 10 uM ZnCl2, 1 mM DTT, 1 ug/ul poly(dI-dC), 0.1% BSA, 2.5% glycerol, 0.05% NP-40; 50 fmol probe; 30 min on ice; 6% native PAGE
Settings: protein: recombinant; tags: His (pET-32a; vector Trx fusion not mentioned); label: 5' biotin; blunt

**Q.** Does B1 bind?
**A.** binds

**Q.** Does B2 bind?
**A.** binds

**Q.** Does B3 bind?
**A.** no binding

**Q.** Does B4 bind?
**A.** no binding

From publication PMC5345856, “Suppressor of rid1 (SID1) shares common targets with RID1 on florigen genes to initiate floral transition in rice”
